In patent publication US20180155451A1 (published 2018):

Experiments:
[1] = molecular target: T1, FcγRIIb extracellular domain with C-terminal His tag (human, UniProt P31994 43-217); assay: SPR (Biacore), antibody captured via antigen peptide, FcγR as analyte; binding relative to GpH7-A5/GpH7-B3/GpL16-k0 = 100
T1 construct: extracellular domain; also called FcgRIIb; 2b; not shown: His tag at the C terminus
T1 sequence (looked up): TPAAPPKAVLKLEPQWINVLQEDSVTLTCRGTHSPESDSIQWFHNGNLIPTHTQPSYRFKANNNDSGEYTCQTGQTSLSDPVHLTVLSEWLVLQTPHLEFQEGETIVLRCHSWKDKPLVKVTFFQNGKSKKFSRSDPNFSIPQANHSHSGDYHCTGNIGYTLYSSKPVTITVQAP

[2] = molecular target: T2, FcγRIIIa extracellular domain with C-terminal His tag (human, UniProt P08637 17-208); assay: as above
T2 construct: extracellular domain; also called FcgRIIIa; 3a; not shown: His tag at the C terminus
T2 sequence (P08637 17-208): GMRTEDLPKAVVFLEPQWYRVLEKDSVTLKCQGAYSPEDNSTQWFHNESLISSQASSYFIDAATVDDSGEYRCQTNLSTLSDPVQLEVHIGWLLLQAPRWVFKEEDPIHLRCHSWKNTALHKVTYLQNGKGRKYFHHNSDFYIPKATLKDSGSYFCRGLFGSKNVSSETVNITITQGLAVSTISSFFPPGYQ

B1: GpH7-A5/GpH7-B3 variant I336_03V/GpL16-k0 (antibody, human IgG1, kappa)
heavy 1: not shown
heavy 2: not shown
light: DIVMTQSPLSLPVTPGEPASISCQASESLVHSNRNTYLHWYLQKPGQSPQLLIYKVSNRFSGVPDRFSGSGSGTDFTLKISRVEAEDVGVYYCSQNTHVPPTFGQGTKVEIERTVAAPSVFIFPPSDEQLKSGTASVVCLLNNFYPREAKVQWKVDNALQSGNSQESVTEQDSKDSTYSLSSTLTLSKADYEKHKVYACEVTHQGLSSPVTKSFNRGEC
notes: He Ab: the mutation stands only in the GpH7-B3-derived H chain; also called He Ab I336V
In the case of B1, the He/Con_2b [1] is reported as 90.3 relative (control = 100) and the He/Con_3a [2] is reported as 112 relative (control = 100).

B2: GpH7-A5/GpH7-B3 variant I336_14T/GpL16-k0 (antibody, human IgG1, kappa)
heavy 1: not shown
heavy 2: not shown
light: DIVMTQSPLSLPVTPGEPASISCQASESLVHSNRNTYLHWYLQKPGQSPQLLIYKVSNRFSGVPDRFSGSGSGTDFTLKISRVEAEDVGVYYCSQNTHVPPTFGQGTKVEIERTVAAPSVFIFPPSDEQLKSGTASVVCLLNNFYPREAKVQWKVDNALQSGNSQESVTEQDSKDSTYSLSSTLTLSKADYEKHKVYACEVTHQGLSSPVTKSFNRGEC
notes: He Ab: the mutation stands only in the GpH7-B3-derived H chain; also called He Ab I336T
With B2 the He/Con_2b [1] was 89.5 relative (control = 100) and the He/Con_3a [2] was 108 relative (control = 100).

B3: GpH7-A5/GpH7-B3 variant I336_13S/GpL16-k0 (antibody, human IgG1, kappa)
heavy 1: not shown
heavy 2: not shown
light: DIVMTQSPLSLPVTPGEPASISCQASESLVHSNRNTYLHWYLQKPGQSPQLLIYKVSNRFSGVPDRFSGSGSGTDFTLKISRVEAEDVGVYYCSQNTHVPPTFGQGTKVEIERTVAAPSVFIFPPSDEQLKSGTASVVCLLNNFYPREAKVQWKVDNALQSGNSQESVTEQDSKDSTYSLSSTLTLSKADYEKHKVYACEVTHQGLSSPVTKSFNRGEC
notes: He Ab: the mutation stands only in the GpH7-B3-derived H chain; also called He Ab I336S
In the case of B3, the He/Con_2b [1] is reported as 83.7 relative (control = 100) and the He/Con_3a [2] is reported as 102 relative (control = 100).

B4: GpH7-A5/GpH7-B3 variant I336_10E/GpL16-k0 (antibody, human IgG1, kappa)
heavy 1: not shown
heavy 2: not shown
light: DIVMTQSPLSLPVTPGEPASISCQASESLVHSNRNTYLHWYLQKPGQSPQLLIYKVSNRFSGVPDRFSGSGSGTDFTLKISRVEAEDVGVYYCSQNTHVPPTFGQGTKVEIERTVAAPSVFIFPPSDEQLKSGTASVVCLLNNFYPREAKVQWKVDNALQSGNSQESVTEQDSKDSTYSLSSTLTLSKADYEKHKVYACEVTHQGLSSPVTKSFNRGEC
notes: He Ab: the mutation stands only in the GpH7-B3-derived H chain; also called He Ab I336E
B4 was tested, and the He/Con_2b [1] was 89.8 relative (control = 100) and the He/Con_3a [2] was 119 relative (control = 100).

B5: GpH7-A5/GpH7-B3 variant I336_18N/GpL16-k0 (antibody, human IgG1, kappa)
heavy 1: not shown
heavy 2: not shown
light: DIVMTQSPLSLPVTPGEPASISCQASESLVHSNRNTYLHWYLQKPGQSPQLLIYKVSNRFSGVPDRFSGSGSGTDFTLKISRVEAEDVGVYYCSQNTHVPPTFGQGTKVEIERTVAAPSVFIFPPSDEQLKSGTASVVCLLNNFYPREAKVQWKVDNALQSGNSQESVTEQDSKDSTYSLSSTLTLSKADYEKHKVYACEVTHQGLSSPVTKSFNRGEC
notes: He Ab: the mutation stands only in the GpH7-B3-derived H chain; also called He Ab I336N
For B5, the He/Con_2b [1] was 97.6 relative (control = 100) and the He/Con_3a [2] was 104 relative (control = 100).

B6: GpH7-A5/GpH7-B3 variant I336_09D/GpL16-k0 (antibody, human IgG1, kappa)
heavy 1: not shown
heavy 2: not shown
light: DIVMTQSPLSLPVTPGEPASISCQASESLVHSNRNTYLHWYLQKPGQSPQLLIYKVSNRFSGVPDRFSGSGSGTDFTLKISRVEAEDVGVYYCSQNTHVPPTFGQGTKVEIERTVAAPSVFIFPPSDEQLKSGTASVVCLLNNFYPREAKVQWKVDNALQSGNSQESVTEQDSKDSTYSLSSTLTLSKADYEKHKVYACEVTHQGLSSPVTKSFNRGEC
notes: He Ab: the mutation stands only in the GpH7-B3-derived H chain; also called He Ab I336D
For B6, the He/Con_2b [1] was 92.1 relative (control = 100) and the He/Con_3a [2] was 106 relative (control = 100).

B7: GpH7-A5/GpH7-B3 variant K334_09D/GpL16-k0 (antibody, human IgG1, kappa)
heavy 1: not shown
heavy 2: not shown
light: DIVMTQSPLSLPVTPGEPASISCQASESLVHSNRNTYLHWYLQKPGQSPQLLIYKVSNRFSGVPDRFSGSGSGTDFTLKISRVEAEDVGVYYCSQNTHVPPTFGQGTKVEIERTVAAPSVFIFPPSDEQLKSGTASVVCLLNNFYPREAKVQWKVDNALQSGNSQESVTEQDSKDSTYSLSSTLTLSKADYEKHKVYACEVTHQGLSSPVTKSFNRGEC
notes: He Ab: the mutation stands only in the GpH7-B3-derived H chain; also called He Ab K334D
For B7, the He/Con_2b [1] was 94.8 relative (control = 100) and the He/Con_3a [2] was 160 relative (control = 100).

B8: GpH7-A5/GpH7-B3 variant K334_01G/GpL16-k0 (antibody, human IgG1, kappa)
heavy 1: not shown
heavy 2: not shown
light: DIVMTQSPLSLPVTPGEPASISCQASESLVHSNRNTYLHWYLQKPGQSPQLLIYKVSNRFSGVPDRFSGSGSGTDFTLKISRVEAEDVGVYYCSQNTHVPPTFGQGTKVEIERTVAAPSVFIFPPSDEQLKSGTASVVCLLNNFYPREAKVQWKVDNALQSGNSQESVTEQDSKDSTYSLSSTLTLSKADYEKHKVYACEVTHQGLSSPVTKSFNRGEC
notes: He Ab: the mutation stands only in the GpH7-B3-derived H chain; also called He Ab K334G
In the case of B8, the He/Con_2b [1] is reported as 92.5 relative (control = 100) and the He/Con_3a [2] is reported as 121 relative (control = 100).
